Data: US20250376533A1 (FUTUREGEN BIOPHARMACEUTICAL BEIJING, published 2025)

T1: rat CD40 antigen (ACROBiosystems) (rat, UniProt A6JXD6 20-193)
T1 construct: Bought antigen coated on ELISA plates; construct not described
T1 sequence: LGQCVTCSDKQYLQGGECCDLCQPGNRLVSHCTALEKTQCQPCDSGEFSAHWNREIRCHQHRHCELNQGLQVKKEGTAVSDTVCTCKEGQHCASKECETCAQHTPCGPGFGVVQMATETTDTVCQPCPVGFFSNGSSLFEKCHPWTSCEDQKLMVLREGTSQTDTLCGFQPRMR


Experiments:
Experiment in all cases: ELISA, coated antigen
[1] = target: T2, cynomolgus CD40 antigen (ACROBiosystems) (cynomolgus, UniProt G7PG38 21-193)
T2 construct: Bought antigen coated on ELISA plates; construct not described
Experimental: (§1) The binding ability of monoclonal antibody to human CD40, as well as the species specificity, was detected using an enzyme-linked immunosorbent assay (ELISA). The specific method is as follows: human CD40, cynomolgus CD40, rat CD40, and mouse CD40 antigens (all purchased from ACROBiosystems) were coated with 1 μg/mL carbonate buffer (pH=9.6) in an ELISA plate at 100 μL per well, followed by incubation at 4° C. overnight. The wells were washed 5 times with PBST. 300 μL/well of PBST containing 1% BSA was added to block the wells, and the plate was incubated at room temperature for 1 hour. The wells were washed 5 times with PBST. […] The wells were washed 5 times with PBST. […] The wells were washed 5 times with PBST. Colorimetric substrate TMB was added at 100 μL per well and allowed to develop color at room temperature for 10 minutes, followed by the addition of 1 M sulfuric acid to terminate the reaction. The OD₄₅₀ nm was read on a microplate reader to analyze the results, and the EC₅₀ was calculated using a 4-parameter fit binding curve.

[2] = target: T3, human CD40 antigen (ACROBiosystems) (human, UniProt P25942 21-193)
T3 construct: Bought antigen coated on ELISA plates; construct not described
T3 sequence (P25942 21-193 limits assumed): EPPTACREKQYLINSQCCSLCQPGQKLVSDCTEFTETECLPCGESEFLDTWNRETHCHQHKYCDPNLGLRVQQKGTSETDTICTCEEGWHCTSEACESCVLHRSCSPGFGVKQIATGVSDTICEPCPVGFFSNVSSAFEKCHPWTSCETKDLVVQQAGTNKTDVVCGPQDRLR
Experimental: as §1

[3] = target: T4, mouse CD40 antigen (ACROBiosystems) (mouse, UniProt P27512 24-193, limits assumed)
T4 construct: Bought antigen coated on ELISA plates; construct not described
T4 sequence (P27512 24-193 limits assumed): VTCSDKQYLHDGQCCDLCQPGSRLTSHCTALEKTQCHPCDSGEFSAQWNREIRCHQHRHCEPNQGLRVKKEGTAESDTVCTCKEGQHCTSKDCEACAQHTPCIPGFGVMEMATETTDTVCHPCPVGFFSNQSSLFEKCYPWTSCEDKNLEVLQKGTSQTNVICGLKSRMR
Experimental: as §1

[4] = target: T1, rat CD40 antigen (ACROBiosystems)
Experimental: as §1

Row | Binder | EC50 [1] | EC50 [2] | binding result [3] | binding result [4]
1 | anti-CD40 monoclonal antibody 1653CD (antibody, human IgG2, kappa, V domains shown) VH: EVQLVESGGGLVQPGGSLRLSCAASGFTFSDYYMSWVRQAPGKGLEWVGFIRNKANAYTTEYAASVKGRFTISRDNSKSTLYLQMNSLRAEDTAVYYCARYGGLKKGWYFDLWGQGTLVTVSS VL: DIQMTQSPSSLSASVGDRVTITCRASQGIRNYLNWYQQKPGKAPKLLIYYTSSLQSGVPSRFSGSGSGTDYTLTISSLQPEDFATYYCQQGINLPWTFGGGTKVEIKR | 0.018 nM | 0.02 nM | no binding | no binding
2 | anti-CD40 monoclonal antibody 1608CD (antibody, human IgG2, kappa, V domains shown) VH: EVQLVESGGGLVQPGGSLRLSCAASGFTFSNYYMSWVRQAPGKGLEWVGFIRNKANGYTTEYAASVKGRFTISRDNSKSTLYLQMNRLRAEDTAVYYCARYGGLKVGWYFDLWGQGTLVTVSS VL: DIQMTQSPSSLSASVGDRVTITCRASQSISNYLAWYQQKPGKAPKLLIYAASSLQSGVPSRFSGSGSGTDYTLTISSLQPEDFATYYCQQGSSYPWTFGGGTKVEIKR | 0.021 nM | 0.022 nM | no binding | no binding
3 | anti-CD40 monoclonal antibody 1606CD (antibody, human IgG2, kappa, V domains shown) VH: EVQLVESGGGLVQPGGSLRLSCAASGFTFSDYYMSWVRQAPGKGLEWVGFIRNKANGYTTEYAASVKGRFTISRDNSKNTLYLQMNSLRAEDTAVYYCARYGGLRQGWYFDVWGQGTLVTVSS VL: DIQMTQSPSSLSASVGDRVTITCRASQDIRNYLNWYQQKPGKAPKLLIYYTSRRDSGVPSRFSGSGSGTDYTLTISSLQPEDFATYFCQQGKTLPWTFGGGTKVEIKR | 0.02 nM | 0.024 nM | no binding | no binding
4 | anti-CD40 monoclonal antibody 1652CD (antibody, human IgG2, kappa, V domains shown) VH: EVQLVESGGGLVQPGGSLRLSCAASGFTFSDYYMSWVRQAPGKGLEWVGFIRNKANAYTTEYAASVKGRFTISRDNSKNTLYLQMNSLRAEDTAVYYCARYGGLRQGWYFDVWGQGTLVTVSS VL: DIQMTQSPSSLSASVGDRVTITCRASQDIRNYLNWYQQKPGKAPKLLIYYTSRRDSGVPSRFSGSGSGTDYTLTISSLQPEDFATYFCQQGKTLPWTFGGGTKVEIKR | 0.018 nM | 0.022 nM | no binding | no binding
5 | anti-CD40 monoclonal antibody 1607CD (antibody, human IgG2, kappa, V domains shown) VH: EVQLVESGGGLVQPGGSLRLSCAASGFTFSDYYMSWVRQAPGKGLEWVGFIRNKANGYTTEYAASVKGRFTISRDNSKSTLYLQMNSLRAEDTAVYYCARYGGLKKGWYFDLWGQGTLVTVSS VL: DIQMTQSPSSLSASVGDRVTITCRASQGIRNYLNWYQQKPGKAPKLLIYYTSSLQSGVPSRFSGSGSGTDYTLTISSLQPEDFATYYCQQGINLPWTFGGGTKVEIKR | 0.017 nM | 0.021 nM | no binding | no binding
6 | anti-CD40 monoclonal antibody 1605CD (antibody, human IgG2, kappa, V domains shown) VH: EVQLVESGGGLVQPGGSLRLSCAASGFTFSNYYMSWVRQAPGKGLEWVAFIRNKANAYTTEYAASVKGRFTISRDNSKSTLYLQMNSLRAEDTAVYYCARYGGIRVGWYFDLWGQGTLVTVSS VL: DIQMTQSPSSLSASVGDRVTITCRASQDIRNYLNWYQQKPGKAPKLLIYYTSRLQSGVPSRFSGSGSGTDYTLTISSLQPEDFATYYCQQGQSFPWTFGGGTKVEIKR | 0.021 nM | 0.022 nM | no binding | no binding
7 | anti-CD40 monoclonal antibody 1609CD (antibody, human IgG2, kappa, V domains shown) VH: EVQLVESGGGLVQPGGSLRLSCAASGFTFSNYYMSWVRQAPGKGLEWVGFIRNKANGYTTEYAASVKGRFTISRDNSKSTLYLQMNSLRAEDTAVYYCARYGGLKIGWYFDLWGQGTLVTVSS VL: DIQMTQSPSSLSASVGDRVTITCRASQTISSYLNWYQQKPGKAPKLLIYYTSTLQSGVPSRFSGSGSGTDYTLTISSLQPEDFATYYCQQGNAYPWTFGGGTKVEIKR | 0.02 nM | 0.022 nM | no binding | no binding
